Our source for the Kd values is patent publication US20180057604A1 (Genentech, published 2018).

The target in assay [1] is TfR (species not stated, Table 15). Description: SPR, Fab. On the technique in general: In SPR one partner is held on a chip, and binding of the other changes the refractive index at the surface.
Assay [2] has as its target T1, human TfR extracellular domain with N-terminal His tag (human, UniProt P02786 89-760).
T1 construct: Biotinylated in some assays; also called huTfR; HuTfR
Description: SPR, biotinylated TfR on streptavidin, bispecific injected.
Description: (§1) Affinity of the bispecific antibodies for human and cynomolgus monkey TfR was determined using surface plasmon resonance (SPR) (Biacore™, GE Healthcare). Streptavidin (Sigma) was coupled onto four different flow cells of a series S BIACORE™ CM5 sensor chip (Biacore, Inc., Piscataway, N.J.) at between 2000 and 3000 RU. Immobilization was achieved by random coupling through amino groups using a protocol provided by the manufacturer. 10×HBS-P (Biacore, Inc., Piscataway, N.J.) was diluted in water and served as the dilution and running buffer. Purified and biotin labeled human or cyno TfR was captured, followed by a 3-fold dilution series of bispecific antibody that was injected at a flow rate of 30 ml/min using the single cycle kinetics method. Affinity constants were determined using a simple 1:1 Langmuir binding model or using a steady state model when kₒₙ or koff was beyond the detection limit. The equilibrium dissociation constant (KD) was calculated as the ratio of association rate constant (kon) and dissociation rate constant (koff).

Assay [3] concerns the target T2, cyno TfR extracellular domain (analogous construct to human TfR ecd) (cynomolgus monkey, UniProt Q5RDH6 87-760 (Pongo abelii entry)).
T2 construct: also called cynoTfR ecd
T2 chain: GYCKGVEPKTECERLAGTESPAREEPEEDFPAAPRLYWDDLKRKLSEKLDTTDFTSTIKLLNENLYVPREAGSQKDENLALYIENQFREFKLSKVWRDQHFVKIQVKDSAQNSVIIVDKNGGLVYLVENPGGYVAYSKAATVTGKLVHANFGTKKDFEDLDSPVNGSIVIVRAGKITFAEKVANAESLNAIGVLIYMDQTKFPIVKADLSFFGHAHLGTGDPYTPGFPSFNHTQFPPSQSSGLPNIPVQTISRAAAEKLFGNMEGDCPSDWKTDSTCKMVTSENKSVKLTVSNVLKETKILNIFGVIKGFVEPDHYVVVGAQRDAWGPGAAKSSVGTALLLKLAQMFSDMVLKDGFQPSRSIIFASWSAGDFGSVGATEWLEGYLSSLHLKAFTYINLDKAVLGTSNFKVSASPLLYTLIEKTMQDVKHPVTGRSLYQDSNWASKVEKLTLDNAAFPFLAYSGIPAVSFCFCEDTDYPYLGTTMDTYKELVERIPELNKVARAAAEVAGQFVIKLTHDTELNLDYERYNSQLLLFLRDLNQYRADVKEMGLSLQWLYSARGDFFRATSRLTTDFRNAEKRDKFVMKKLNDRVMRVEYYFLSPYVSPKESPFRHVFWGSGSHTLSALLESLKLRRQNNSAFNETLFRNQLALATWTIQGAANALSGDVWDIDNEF
The description is as above.
Description: as §1

Positions count from the first letter of the chain named. Names and notes keep the numbering of the source.

B1: Hu15G11.HC52A Fab (Fab, V domains shown)
VH: EVQLVQSGAEVKKPGASVKVSCKASGYTFTSYWMHWVRQAPGQRLEWIGEIAPTNGRTNYIEKFKSRATLTVDKSASTAYMELSSLRSEDTAVYYCARGTRAYHYWGQGTMVTVSS
VL: DIQMTQSPSSLSASVGDRVTITCRASDNLYSNLAWYQQKPGKSPKLLVYDATNLADGVPSRFSGSGSGTDYTLTISSLQPEDFATYYCQHFWGTPLTFGQGTKVEIK
notes: Fab; also called antiTfR.52A.Fab; 15G11.52A Fab
Broadly, the Kd is the free concentration of one partner at which half of the binding sites on the other are occupied at equilibrium, for simple one-to-one binding. In assay [1], B1 returned an equilibrium dissociation constant (Kd) of 0.055 µM. This counts as double-digit nanomolar.

B2: Anti-TfR1/6266.hIgG1.N297G (bispecific antibody, V domains shown)
VH 1: B1 VH with A52N
VL 1: B1 VL
VH 2: EVQLVQSGAEVKKPGSSVKVSCKASGGTLSGYGVSWVRQAPGQGLEWMGNIIPGFGTANYAQKFQGRVTITADESTSTAYMELSSLRSEDTAVYYCARSGGTKYGMLDVWGQGTMVTVSS
VL 2: EIVMTQSPATLSVSPGERATLSCRASQSVSSNLAWYQQKPGQAPRLLIYGASTRATGIPARFSGSGSGTEFTLTISSLQSEDFAVYYCQQLILWPPRTFGGGTKVEIK
notes: Knob-in-hole human IgG1 with N297G
Consider B2, for which the Kd in assay [2] amounted to 0.009 µM; in assay [3], 0.0237 µM.
